According to paper PMC5378893 (Scientific Reports, 2015):
Where a chain is given by its changes, count along the chain named. Numbers in names are those of the source.

B1: M64 IgG (mouse anti-HER2/ECD) (antibody, V domains shown)
VH: EVQLQQSGAELVKPGASVKLSCTASGFNIKNTYMHWVKQRPEQGLEWIGRIDPANGNTKYDPKLQGKATITADTSSNTAYLHLSSLTSEDTAVYYCVPYYRGAMDYWGQGTSVTVSS
VL: DIQMNQSHKFMSTSVGDRVSITCKASQDVSTAVAWYQQKPGQSPKLLIYWASTRHTGVPGRFTGSGSGADYTLTISSVQAEDLALYYCQQHYSTPYTFGGGTKLEIK
notes: mouse VL; L49~L53 YWAST; L91~L96 HYSTPY; mouse VH; H50~H58 RIDPANGNTK; H96~H100B YRGAM; recombinant IgG from a scFv of an immunized mouse's phage library; source: HEK293-F, transient transfection, purified (Protein A, Superdex 200)
B2: GH2-23 IgG (antibody, V domains shown)
VH: EVQLVESGGGLVQPGGSLRLSCAASGFTINGGGIHWVRQAPGKGLEWVAFIGPFGGSTFYADSVKGRFTISADTSKNTAYLQMNSLRAEDTAVYYCARFFGGNIHVMDYWGQGTLVTVSS
VL: DIQMTQSPSSLSASVGDRVTITCRASQDVFWGVAWYQQKPGKAPKLLISWSASLYSGVPSRFSGSGSGTDFTLTISSLQPEDFATYYCQQYFSFPFTFGQGTKVEIK
notes: source: HEK293-F, transient transfection, purified (Protein A, Superdex 200)
B3: GH2-95 IgG (antibody, V domains shown)
VH: EVQLVESGGGLVQPGGSLRLSCAASGFTIDSWGIHWVRQAPGKGLEWVAGIGPFWGYTSYADSVKGRFTISADTSKNTAYLQMNSLRAEDTAVYYCARFGIHFDGIMDYWGQGTLVTVSS
VL: DIQMTQSPSSLSASVGDRVTITCRASQDVSGGVAWYQQKPGKAPKLLIFGSTWLYSGVPLRFSGSGSGTDFTLTISSLQPEDFATYYCQQYYDWPLTFGQGTKVEIK
notes: as for B2
B4: GH2-42 IgG (antibody, V domains shown)
VH: B3 VH with D30S, S31N, F54Y, W55G, I101F, H102Y
VL: B3 VL with G31S, F49S, S51P, W53G, L60S, E105K, I106R, K107G
notes: as for B2
B5: GH2-36 IgG (antibody, V domains shown)
VH: B3 VH with D30G, S31G, W32G, G50Y, F54Y, W55G, G100H, I101D, F103I, D104G
VL: B3 VL with S30N, G31S, G32N, K39E, F49Y, G50F, T52S, W53G, L60S, D93N
notes: as for B2
B6: GH2-98 IgG (antibody, V domains shown)
VH: B3 VH with D30N, S31N, W32Y, F54S, Y57F, S59Y, I101F, H102Y, F103N, I106F
VL: B2 VL with F30G, W31S, S49Y, W50F, F92Y, S93N, F94W, F96L
notes: as for B2
B7: GH2-104 IgG (antibody, V domains shown)
VH: B3 VH with W55G, I101D, H102Y, F103I, I106V
VL: B3 VL with S30N, G31S, G32N, F49Y, T52P, W53S, L60S
notes: as for B2
B8: M32 IgG (mouse anti-HER2/ECD) (antibody, V domains shown)
VH: EVQLVESGAELVRPGALVKLSCKASGFNIKDYFMYWVKQRPEQGLEWVGWIDPENGNTIYDPKFQGKASITADTSSNTAYLQLSSLTSEDTAVYYCTRGYYGSRVLAMDYWGQGTSVTVSS
VL: GIELTQSQKFMSTSVGDRVSITCKASQNVGTAVAWYQQKPGQSPKLLIYSASNRYTGVPDRFTGSGSGTDFTLTISNMQSEDLADYFCQQYSSYPLAFGGGTKLEIK
notes: mouse VL; L49~L53 YSASN; L91~L96 YSSYPL; mouse VH; H50~H58 WIDPENGNTI; H96~H100B YYGSRVL; recombinant IgG from a scFv of an immunized mouse's phage library; source: HEK293-F, transient transfection, purified (Protein A, Superdex 200)
B9: M41 IgG (mouse anti-HER2/ECD) (antibody, V domains shown)
VH: EVQLQQSGAELVKPGASVKMSCKAFGYTFTTYPIEWMKQNHGKSLEWIGNFHPYNDYTNYNEKFKGKAKLTVEKSSTTVYLELSRLTSDDSAVYYCARRHDGYYGAMDYWGQGTSVTVSS
VL: DIQMTQTTSSLSASLGDRVTISCRTSQDISNYLNWYQQKPNGTIKLLIYYTSGLYSGVPSRFSGSGSGADYSLTISNVEQEDIATYFCQQVNTLPYTFGGGTKLELK
notes: mouse VL; L49~L53 YYTSG; L91~L96 VNTLPY; mouse VH; H50~H58 NFHPYNDYTN; H96~H100B HDGYYGA; recombinant IgG from a scFv of an immunized mouse's phage library; source: HEK293-F, transient transfection, purified (Protein A, Superdex 200)
B10: M61 IgG (mouse anti-HER2/ECD) (antibody, V domains shown)
VH: B9 VH with Y57D, N59K, T77S, H100N
VL: DIKITQSPASLSASVGETVTITCRASENIYSYLAWYQQKQGKSPQLLVYNAKTLAEGVPSRFSGSGSGTQFSLKINSLQPEDFGSYYCQHHYGTPYTFGGGTKLELK
notes: mouse VL; L49~L53 YNAKT; L91~L96 HYGTPY; mouse VH; H50~H58 NFHPYNDDTK; H96~H100B NDGYYGA; recombinant IgG from a scFv of an immunized mouse's phage library; source: HEK293-F, transient transfection, purified (Protein A, Superdex 200)
B11: M62 IgG (mouse anti-HER2/ECD) (antibody, V domains shown)
VH: EVQLQQSGTELARPGASVKLSCKASGYTFIDYYITWVKQRTGQGLEWIGEIYPGGGNPYYNDNFKGKASLTADKSSNTVYMQLSSLTSEDSAVYFCARSYKYDVSVYWGQGTLVTVSA
VL: DIQMIQSQKFMSTSVGDRVSVTCKASQNVGTNVAWYQQKPGQSPKALIHSASYRYSGVPDRFTGSGSGTDFTLTISNVQSEDLAEYFCQQYNSYPLTFGAGTKLEIK
notes: mouse VL; L49~L53 HSASY; L91~L96 YNSYPL; mouse VH; H50~H58 EIYPGGGNPY; H96~H100B YKYDVS; recombinant IgG from a scFv of an immunized mouse's phage library; source: HEK293-F, transient transfection, purified (Protein A, Superdex 200)
B12: GH2-3 IgG (antibody, V domains shown)
VH: EVQLVESGGGLVQPGGSLRLSCAASGFTISGGWIHWVRQAPGKGLEWVAGIWPSGGSTSYADSVKGRFTISADTSKNTAYLQMNSLRAEDTAVYYCARFYFGFGDLMDYWGQGTLVTVSS
VL: DIQMTQSPSSLSASVGDRVTITCRASQDVNNNVAWYQQKPGKAPKLLIYGARYLYSGVPSRFSGSGSGTDFTLTISSLQPEDFATYYCQQFGGGPLTFGQGTKVEIK
notes: as for B2
B13: GH2-16 IgG (antibody, V domains shown)
VH: EVQLVESGGGLVQPGGSLRLSCAASGFTINNWGIHWVRQAPGKGLEWVAGIWPFGGYTYYADSVKGRFTISADTSKNTAYLQMNSLRAEDTAVYYCARFDYLNNGGMDYWGQGTLVTVSS
VL: B12 VL with N30Y, N31S, N32S, Y49S, G50Y, A51T, R52S, F91Y, G92Y, L96M
notes: as for B2
B14: GH2-54 IgG (antibody, V domains shown)
VH: EVQLVESGGGLVQPGGSLRLSCAASGFTISDGSIHWVRQAPGKGLEWVAFIGPYWGFTYYADSVKGRFTISADTSKNTAYLQMNSLRAEDTAVYYCARFVNWVHYGMDYWGQGTLVTVSS
VL: B2 VL with F30N, W31D, G32N, S49F, W50G, A52S, Y91G, F92W, S93N, F94Y
notes: as for B2
B15: GH2-8 IgG (antibody, V domains shown)
VH: GVQLVESGGGLVQPGGSLRLSCAASGFTIGSSGIHWVRQAPGKGLEWVAGIWPYWGSTYYADSVKGRFTISADTSKNTAYLQMNSLRAEDTAVYYCARFGVGYHYYMDYWGQGTLVTVSS
VL: DIQMTQSPSSLSASVGDRVTITCRASQDVGWWVAWYQQKPGKAPKLLISGATGLYSGVPSRFSGSGSGTDFTLTISSLQPEDFATYYCQQSWDSPITFGQGTKVEIK
notes: as for B2
B16: GH2-102 IgG (antibody, V domains shown)
VH: B3 VH with D30N, S31G, W32G, G50S, F54Y, W55G, E89G, I101H, F103Y, I106H
VL: B12 VL with N30G, N31S, R52P, F91Y, G92Y, G93N, G94W
notes: as for B2
B17: GH2-59 IgG (antibody, V domains shown)
VH: EVQLVESGGGLVRPGGSLRLSCAASGFTIGDWYIHWVRQAPGKGLEWVAGIGPYWGYTSYADSVKGRFTISADTSKNTAYLQMNSLRAEDTAVYYCARFVGDVWHDMDYWGQGTLVAVSS
VL: B2 VL with F30S, W31G, S51T, A52G, Y91W, F92S, S93D, F96I
notes: as for B2
B18: GH2-96 IgG (antibody, V domains shown)
VH: B3 VH with D30S, S31G, W32Y, S59F, I101H, H102I, F103V, I106L
VL: B3 VL with S30N, F49Y, T52S, L60S, Y92F, L96I
notes: as for B2
B19: GH2-14 IgG (antibody, V domains shown)
VH: B13 VH with N31D, W32H, W52G, Y59S, D100N, Y101F, L102N, N103D, N104V
VL: B2 VL with F30G, W31G, W50G, S51P, A52P, S53Y, S93N, F94Y, F96I
notes: as for B2
B20: GH2-13 IgG (antibody, V domains shown)
VH: EVQLVESGGGLVQPGGSLRLSCAASGFTISDGGIHWVRQAPGKGLEWVAGIWPYWGYTSYADSVKGRFTISADTSKNTAYLQMNSLRAEDTAVYYCARFDNNWVGNMDYWGQGTLVTVSS
VL: B2 VL with F30Y, W31F, W50G, S51T, A52T, F92G, F94Y, F96I
notes: as for B2
B21: GH2-60 IgG (antibody, V domains shown)
VH: B20 VH with G32F, S59Y, D100W, N102I, W103Y, V104W, G105N, N106V
VL: B15 VL with S7G, W31S, G50S, A51P, T52P, G53S, S91G, W92F
notes: as for B2
B22: GH2-18 IgG (antibody, V domains shown)
VH: B13 VH with N30S, F54Y, Y59F, D100N, N104L
VL: B12 VL with N31S, G50W, A51T, R52T, Y53G, F91Y, G92L, G93S, L96I
notes: as for B2
B23: GH2-21 IgG (antibody, V domains shown)
VH: EVQLVESGGGLVQPGGSLRLSCAASGFTINDYSIHWVRQAPGKGLEWVASIWPFGGSTSYADSVKGRFTISADTSKNTAYLQMNSLRAEDTAVYYCARFNYWIGIIMDYWGQGTLVTVSS
VL: B12 VL with N30S, N31D, G50W, R52T, Y53G, F91Y, G92Y, G94F
notes: as for B2
B24: GH2-40 IgG (antibody, V domains shown)
VH: B3 VH with D30N, G50W, F54Y, Y57F, G100D, I101G, I106V
VL: B3 VL with S30N, G31N, F49S, S51T, T52P, L60S, Y92F
notes: as for B2

Target: T1, extracellular domain (ECD) of human epidermal growth factor receptor 2 (HER2) (Homo sapiens, UniProt P04626)
T1 construct: human epidermal growth factor receptor 2 (HER2), extracellular domain; also called HER2/ECD
Experiment: SPR; BIAcore T200; HER2/ECD immobilised on a CM5 chip by amine coupling to 1000 RU; IgG flowed in PBST (0.05% Tween 20) at 30 uL/min; regeneration 10 mM glycine pH 1.5; global fit to a 1:1 binding model
Conditions: both partners purified

| Binder | Kd [nM] | koff [s⁻¹] | kon [M⁻¹ s⁻¹] |
| --- | --- | --- | --- |
| B1 | 0.195 | 0.000337 | 1.74e+06 |
| B2 | 0.827 | 0.00018 | 217000 |
| B3 | 4.47 | 0.000244 | 54700 |
| B4 | 0.169 | 0.000235 | 1.39e+06 |
| B5 | 8.85 | 7.7 | 8.68e+08 |
| B6 | 88.5 | 0.0224 | 254000 |
| B7 | 1.04 | 0.000884 | 852000 |
| B8 | 0.243 | 7.15e-05 | 294000 |
| B9 | 0.0519 | 3.48e-05 | 671000 |
| B10 | 0.591 | 0.0024 | 4.06e+06 |
| B11 | 0.0228 | 1.8e-05 | 788000 |
| B12 | 2.07 | 0.000502 | 242000 |
| B13 | 1.2 | 0.000102 | 85700 |
| B14 | 37.9 | 0.0128 | 339000 |
| B15 | 0.259 | 0.000155 | 599000 |
| B16 | 28.4 | 0.039 | 1.37e+06 |
| B17 | 6.02 | 0.000288 | 47800 |
| B18 | 5.42 | 0.00137 | 254000 |
| B19 | 17 | 0.00573 | 336000 |
| B20 | 2.64 | 0.00818 | 3.1e+06 |
| B21 | 1.53 | 0.00556 | 3.64e+06 |
| B22 | 0.0695 | 1.09e-05 | 156000 |
| B23 | 1.4 | 0.000623 | 444000 |
| B24 | 3.04 | 0.000217 | 71200 |
